Laboratory results taken from publication PMC4996995.

Biological target: T1, (His)6-YycF, non-phosphorylated response regulator (Streptococcus pneumoniae TIGR4) (UniProt A0A0H2UQ68)
T1 sequence: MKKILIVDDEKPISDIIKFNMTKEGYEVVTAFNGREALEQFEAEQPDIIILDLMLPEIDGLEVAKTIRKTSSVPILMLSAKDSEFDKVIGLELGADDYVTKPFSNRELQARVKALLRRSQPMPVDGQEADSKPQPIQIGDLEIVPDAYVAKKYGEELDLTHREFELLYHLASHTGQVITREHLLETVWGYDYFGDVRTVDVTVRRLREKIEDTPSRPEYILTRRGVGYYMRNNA
Assay: EMSA
Conditions: EMSA: 50 mM Tris-HCl pH 7.8, 500 mM NaCl, 4 mM MgCl2, 20 uL, 0.5-1.0 nM DNA, 0°C 30 min; 5% native PAGE, TBE, 4°C

**Q.** “CATTCGGAGAGAAGAAGACCTAAATTTACAGGAAAATAAAAAATACTTGCATCATTCTTTGAATTTTGATATAATTCTTTCTGTCAAATGTTTTGATTGTAAAAGTTTTTTGAAGAAGGAGGGATATGAAAAATGGACTACCAACGAATCAATGAATATTTAACATCTATATTTAACAATGTCCTTGTAATTGAGG (double strand) [amplicon A (PFabT promoter region)]” was tested. Which binding did it give?
**A.** binds
